Experimental data taken from patent US20260028608A1.

B1: N240, a variant IdeZ polypeptide of the invention (enzyme)
chain: MDDYQRNATEAYAKEVPHQITSVWTKGVTPPEQFTQGEDVIHAPYLAHQGWYDITKAFNGKDDLLCGAATAGNMLHWWFDQNKTEIEAYLSKHPEKQKIIFRNQELFDLKAAIDTKDSQTNSQLFNYFRDKAFPNLSARQLGVMPDLVLDMFINGYYLNVFKTQSTDVNRPYQDKDKRGGIFDAVFTRGNQTTLLTARHDLKNKGLNDISTIIKQELTEGRALALSHTYANVSISHVINLWGADFNAEGNLEAIYVTDSDANASIGMKKYFVGINAHGHVAISAKKIEGENIGAQVLGLFTLSSGKDIWQKLS
B2: pCART239, a variant IdeZ polypeptide of the invention (enzyme)
chain: MDDYQRNATEAYAKEVPHQITSVWTKGVTPPEQFTQGEDVIHAPYLAHQGWYDITKAFNGKDDLLCGAATAGNMLHWWFDQNKTEIEAYLSKHPEKQKIIFRNQELFDLKAAIDTKDSQTNSQLFNYFRDKAFPNLSARQLGVMPDLVLDMFINGYYLNVFKTQSTDVNRPYQDKDKRGGIFDAVFTRGNQTTLLTARHDLKNKGLNDISTIIKQELTEGRALALSHTYANVSISHVINLWGADFNAEGNLEAIYVTDSDANASIGMKKYFVGINAHGHVAISAKKIEGENIGAQVLGLFTLSSGKDIWQKLSGGGHHHHHH

Legend:
[1] = target: Human IgG (fixed concentration, MSD potency assay of Example 4); test: cell-based or functional assay
[2] = target: IgG in human serum pool from 100 individuals; test: cell-based or functional assay

Row | Binder | mean relative potency (EC50Ref/EC50Test x 100%), MSD potency assay of IgG cleavage [1] | Relative Potency (%) In Serum, Plate 1 (MSD, from EC50; reference IdeS) [2] | Relative Potency (%) In Serum, Plate 1 (MSD, from EC50; reference IdeS; separate dilutions) [2] | Relative Potency (%) In Serum, Plate 2 (MSD, from EC50; reference IdeS) [2] | Relative Potency (%) In Serum, Plate 2 (MSD, from EC50; reference IdeS; separate dilutions) [2] | Relative Potency (%) In serum, Mean value (MSD, from EC50; reference IdeS) [2] | Relative Potency (%) In serum, Mean value (MSD, from EC50; reference IdeS; separate dilutions) [2] | enzyme concentration at which all IgG were converted to scIgG, serum pool with 0.1 mg/ml pCART243 (SDS-PAGE) [2]
1 | B1 | 300% | 151% | 137% | 132% | 146% | 142% | 142% | –
2 | B2 | – | – | – | – | – | – | – | 0.5 µg/ml
